From patent publication US20200231671A1 (E R SQUIBB AND SONS L L C, published 2020) come the findings set out here.

In general, EC50 refers to the concentration needed to bring the measured effect to its halfway point.

For test [1], the target named is T1, mouse LAG-3 (cell surface, 3A9 mouse T cell hybridoma) (mouse, UniProt Q61790 24-521).
T1 construct: whole, on cells; also called mLAG-3
T1 sequence (looked up): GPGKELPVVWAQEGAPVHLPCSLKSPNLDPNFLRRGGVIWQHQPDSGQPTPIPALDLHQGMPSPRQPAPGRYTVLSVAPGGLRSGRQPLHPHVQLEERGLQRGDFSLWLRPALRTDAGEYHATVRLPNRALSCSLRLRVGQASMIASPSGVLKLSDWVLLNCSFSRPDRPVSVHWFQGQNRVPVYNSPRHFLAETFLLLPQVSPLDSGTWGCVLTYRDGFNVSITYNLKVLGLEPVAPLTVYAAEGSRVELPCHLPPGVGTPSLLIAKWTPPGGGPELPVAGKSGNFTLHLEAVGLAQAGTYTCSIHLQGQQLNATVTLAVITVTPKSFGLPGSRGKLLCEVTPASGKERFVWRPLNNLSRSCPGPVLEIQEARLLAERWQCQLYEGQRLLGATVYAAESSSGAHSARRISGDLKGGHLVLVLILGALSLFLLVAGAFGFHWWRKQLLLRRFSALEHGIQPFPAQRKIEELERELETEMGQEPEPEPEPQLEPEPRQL
As to the kind of experiment: flow cytometry, 3A9 cells transfected with mouse LAG-3. The method, then:
To determine whether the antibodies cross-reacted with mouse LAG-3, similar flow cytometry studies to those described above were performed using as the target cell a mouse T cell hybridoma cell line (3A9) that had been transfected to express mouse LAG-3 on its cell surface, followed by FACS analysis to detect antibody binding.
(In general: Flow cytometry measures light scatter and fluorescence of single cells or particles in a stream.)

Test [2] has as its target T2, human LAG-3 (cell surface) (human, UniProt P18627 23-525).
T2 construct: whole, on cells; also called CHO-human LAG-3
T2 sequence (looked up): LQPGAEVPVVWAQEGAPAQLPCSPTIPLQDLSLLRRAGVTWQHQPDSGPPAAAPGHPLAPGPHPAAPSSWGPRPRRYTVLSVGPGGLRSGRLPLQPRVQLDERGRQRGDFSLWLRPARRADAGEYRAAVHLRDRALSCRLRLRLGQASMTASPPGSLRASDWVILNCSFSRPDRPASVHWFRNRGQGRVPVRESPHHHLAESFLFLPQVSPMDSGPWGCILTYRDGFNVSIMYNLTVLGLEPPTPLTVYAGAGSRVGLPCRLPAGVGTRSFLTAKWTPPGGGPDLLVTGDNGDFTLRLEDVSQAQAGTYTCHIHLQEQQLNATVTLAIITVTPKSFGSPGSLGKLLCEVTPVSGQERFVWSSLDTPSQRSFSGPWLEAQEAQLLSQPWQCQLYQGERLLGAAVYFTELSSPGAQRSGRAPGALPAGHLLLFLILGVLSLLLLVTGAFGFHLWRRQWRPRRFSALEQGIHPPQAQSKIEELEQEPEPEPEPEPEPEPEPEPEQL
Briefly: flow cytometry, activated human CD4+ T cells. How it is done:
(§1) To test the ability of the antibodies to bind to cell surface LAG-3 protein, the antibodies were incubated with a CHO cell line that had been transfected to express human LAG-3 on the cell surface. The 25F7, 26H10, 25E3, 8B7, 11F2 and 17E5 monoclonal antibodies were serially diluted with cold lx PFAE buffer (1×PBS+2% FBS, 0.02% sodium azide, 2 mM Na EDTA). For the binding reaction, 50 μl of diluted antibody solution was added to a 50 μl cell suspension containing 2×10⁵ cells and the mixture was incubated on ice for 30 minutes. The cells were then washed two times with 1×PFAE buffer. A 1:100 dilution of FITC-labeled goat anti-human kappa light chain antibody (Bethyl Laboratories, Inc., Cat. # A80-115F) was added and the mixture was incubated for 30 minutes at 4° C., followed by washing twice with cold 1×PFAE buffer. After the final wash, 150 μl of cold 1×PFAE containing 10 μg/mL propidium iodide (Roche Applied Science, Cat #1 348 639) was added to each solution and analysis of antibody binding was carried out by flow cytometry using a FACScalibur flow cytometer (BD Bioscience).
To test the ability of the antibodies to bind to native human LAG-3 on the surface of activated human T cells, resting CD4⁺ T cells were isolated from purified peripheral blood mononuclear cells and subjected to three days of stimulation with a combination of anti-CD3 and anti-CD28 antibodies affixed to polystyrene beads. The 25F7, 8B7 and 26H10 monoclonal antibodies were serially diluted with cold 1×PFAE buffer (1×PBS+2% FBS, 0.02% sodium azide, 2 mM Na EDTA). For the binding reaction, 50 μl of diluted antibody solution was mixed with 50 μl of PE-labeled anti-human CD4 (BD Bioscience, Cat # 555347). Activated T cells were processed by the same protocol described above. The analysis of antibody binding was conducted as described above.

In test [3] the target is T3, rhesus monkey LAG-3 full length extra loop peptide (rhesus monkey).
T3 construct: Used in a 'similar peptide ELISA'; Biotinylation is not restated for this peptide; also called Rhesus Extra Loop
T3 peptide: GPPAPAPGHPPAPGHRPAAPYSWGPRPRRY
Briefly: ELISA on rhesus full length extra loop peptide. The method, then:
To further examine binding of these antibodies to the extra loop peptide region, additional ELISA assays were performed. In an ELISA assay using the human full-length extra loop peptide (SEQ ID NO: 79), EC₅₀ values for binding were determined for 25E3, 25F7 and 8B7. Additionally, a similar peptide ELISA was conducted using the full length extra loop peptide sequence from rhesus monkey LAG-3, having the sequence […] (SEQ ID NO: 90), and EC₅₀ values for binding were determined for 25F7 and 8B7. […] Moreover, antibodies 25F7 and 8B7 also bind to the rhesus LAG-3 extra loop peptide region, albeit less well compared to the human sequence, which may be due to the species sequence divergence in this polypeptide. The results also confirm that the 26H10 antibody is not capable of recognizing the LAG-3 extra loop peptide.
(In general: In an ELISA, binding on a coated surface is turned into a signal by an enzyme label.)

Test [4] has as its target T2, human LAG-3 (cell surface). As to the kind of experiment: flow cytometry, CHO cells expressing human LAG-3. The method, then:
as §1

B1: 26H10 human monoclonal antibody (antibody, IgG1, V domains shown)
VH: QVQLVESGGGVVQPGRSLRLSCAASGFTFSSYGMHWVRQAPGKGLEWVAVIWYDGSNKYYADSVKGRFTISRDNSKNTLYLQMNSLRAEDTAVYYCAREWAVASWDYGMDVWGQGTTVTVSS
VL: not shown
notes: also called 26H10-FITC
Take B1: the binding result in test [1] and in test [3] was “no binding” throughout. Further, the EC50 in test [2] lay within 0.41 to 0.84 nM; in test [4] it was 1.81 to 3.64 nM.

B2: 25F7 human monoclonal antibody (antibody, IgG1, V domains shown)
VH: QVQLQQWGAGLLKPSETLSLTCAVYGGSFSDYYWNWIRQPPGKGLEWIGEINHNGNTNSNPSLKSRVTLSLDTSKNQFSLKLRSVTAADTAVYYCAFGYSDYEYNWFDPWGQGTLVTVSS
VL: EIVLTQSPATLSLSPGERATLSCRASQSISSYLAWYQQKPGQAPRLLIYDASNRATGIPARFSGSGSGTDFTLTISSLEPEDFAVYYCQQRSNWPLTFGQGTNLEIK
notes: also called 25F7-FITC (IgG1 version)
For the molecule B2, the binding result in test [1] was “no binding”. Also, the EC50 in test [2] was 0.27 to 0.45 nM; in test [3], 13.1 nM; in test [4], 0.45 to 2.52 nM. In addition, the “fold lower EC50 than 25E3” value in test [4] was around 20 fold.

B3: 8B7 human monoclonal antibody (antibody, IgG4, V domains shown)
VH: QVQLQQWGAGLLKPSETLSLTCAVYGGSFSGYYWSWIRQPPGKGLEWIGEINHRGNTNCNPSLKSRVTISGDTSKKQFALKLNSVTAADTAVYYCARGYDILTGYYEDSWGPGTLVTVSS
VL: EIVLTQSPATLSLSPGERATLSCRASQSVSSYLAWYQQKPGQAPRLLIYNASNRATGIPARFSGSGSGTDFTLTISSLEPEDFAVYYCQQRSNWPLTFGGGTKVEIK
notes: also called 8B7-FITC
As to B3, the binding result in test [1] is recorded as “no binding”. The EC50 is 0.69 to 1.8 nM in test [2], 0.6 nM in test [3] and 1.93 to 4.44 nM in test [4].

B4: 25E3 human monoclonal antibody (antibody, IgG1, V domains shown)
VH: EVQLVESGGGVVRPGGSLRLSCAASGFTFDDYGMSWVRQAPGKGLEWVSGINWNGGSTYYADSVKGRFTISGDNAKNSLYLQMNSLRAEDTALYYCTTGGYWGQGTLVTVSS
VL: AIQLTQSPSSLSASVGDRVTITCRASQGIRSALAWYQQKPGKAPKLLIYDASSLESGVPSRFSGSGSGTDFTLTISSLQPEDFATYYCQQFNSYPYTFGQGTKLEIK
For the molecule B4, the binding result in test [1] was “no binding”. In test [4], this molecule displayed an EC50 of 14.9 to 25.4 nM.
